From article PMC4720780, “Fruit Ripening Regulation of α-Mannosidase Expression by the MADS Box Transcription Factor RIPENING INHIBITOR and Ethylene”

Target: RIN (RIPENING INHIBITOR, MADS box) (Solanum lycopersicum, UniProt Q8S4L4 1-242)
Assay: EMSA; 10 mM MgCl2; 20 mM HEPES pH 7.5, 20% glycerol, 0.05 ug poly(dI-dC), 10 mM MgCl2, 2.5 mM EDTA, 2.5 mM DTT, 25 mM NaCl, 25 C, 30 min; 6% native PAGE 0.5x TBE
Settings: protein: recombinant; chain copies: 2; label: 32P (alpha-32P dCTP Klenow fill-in); filled-in ends

Sequence of RIN (RIPENING INHIBITOR, MADS box) (Q8S4L4 entry or part of it): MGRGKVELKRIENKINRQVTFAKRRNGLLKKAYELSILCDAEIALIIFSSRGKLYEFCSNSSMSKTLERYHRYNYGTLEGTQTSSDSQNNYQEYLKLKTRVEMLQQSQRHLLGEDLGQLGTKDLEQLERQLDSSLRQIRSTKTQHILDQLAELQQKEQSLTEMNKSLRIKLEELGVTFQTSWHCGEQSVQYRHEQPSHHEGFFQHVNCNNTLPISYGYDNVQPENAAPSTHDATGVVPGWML

B1: alpha-Man promoter fragment MD4 (187 bp) (dsDNA)
DNA 1: GAAGACTTCACAAATCTTGATTTTTGAATACGACCCTTTAGTATTAAGTTTTCCAATTAATCTTGTAGGTCCATTGGCTTTGATTCCCTTTCTTGATTTATCTACAAAAATTTAGGCTATTTATAGAGATTTGGGGTTTATGGTTTAGTACATTCTCTTTCAGTGAACACTCTCAGCAATGGTGGAA
DNA 2: TTCCACCATTGCTGAGAGTGTTCACTGAAAGAGAATGTACTAAACCATAAACCCCAAATCTCTATAAATAGCCTAAATTTTTGTAGATAAATCAAGAAAGGGAATCAAAGCCAATGGACCTACAAGATTAATTGGAAAACTTAATACTAAAGGGTCGTATTCAAAAATCAAGATTTGTGAAGTCTTC
binding result: binds
